Experimental data: paper doi:10.1101/2025.10.03.680225

Legend:
GAPDH-wt = GAPDH-wt (UniProt P04406 1-335); experiment: fluorescence anisotropy
GAPDH-K215E = GAPDH-K215E (UniProt P04406 1-335, K215E); experiment: fluorescence anisotropy
Chain of GAPDH-K215E (P04406 whole entry K215E): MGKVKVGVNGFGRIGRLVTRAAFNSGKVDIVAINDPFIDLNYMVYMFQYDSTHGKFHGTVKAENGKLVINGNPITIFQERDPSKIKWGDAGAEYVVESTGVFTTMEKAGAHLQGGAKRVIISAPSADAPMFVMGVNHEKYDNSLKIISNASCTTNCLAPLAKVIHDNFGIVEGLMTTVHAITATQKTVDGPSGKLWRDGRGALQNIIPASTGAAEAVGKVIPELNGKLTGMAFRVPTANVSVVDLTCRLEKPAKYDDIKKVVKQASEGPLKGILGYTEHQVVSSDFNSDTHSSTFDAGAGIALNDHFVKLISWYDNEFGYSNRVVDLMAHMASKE

Chain of GAPDH-wt (P04406 whole entry): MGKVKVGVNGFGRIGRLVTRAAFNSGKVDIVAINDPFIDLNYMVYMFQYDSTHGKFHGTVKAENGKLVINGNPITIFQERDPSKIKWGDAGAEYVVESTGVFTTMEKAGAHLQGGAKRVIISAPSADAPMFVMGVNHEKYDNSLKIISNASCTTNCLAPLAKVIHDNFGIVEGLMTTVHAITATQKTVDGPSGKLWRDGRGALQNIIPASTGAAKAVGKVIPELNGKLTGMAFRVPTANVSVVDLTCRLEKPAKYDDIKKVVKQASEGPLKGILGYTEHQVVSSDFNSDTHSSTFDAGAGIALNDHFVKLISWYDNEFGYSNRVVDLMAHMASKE

AAAAAAAAAAAAAAAAAAAA (ssRNA) [20A-RNA]
Kd (GAPDH-wt): 132 ± 10 nM
Kd (GAPDH-K215E): 3100 ± 217 nM
